Source: the supplement of paper PMC6755084

Tested on: F1*sub RNA substrate (template-directed ligation)
Assay: fraction ligated after 30 min (ligated reads / total reads); higher = more ligase activity; sequences stand for … in GAGACCGCAACTGAAAAGTTGT…AGTTCTGCACGTAGAAGCAAAAGGC
Details: 42 °C
Outline: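 Ribozyme variants were transcribed with T7 from PCR-amplified oligo-pool templates and gel-purified. Ligated and unligated bands, separated on gel, were reverse transcribed with barcoded primers and sequenced on a MiSeq, with core bases filtered at quality ≥20. Fraction ligated per variant was computed as ligated reads divided by total reads.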

## TATCACTTTCGAAGACACTTTGATGGGTTGA [3d1500]
  fraction ligated: 0.767

## TATCACTTTCGAAGACACTTTGGAGGGTTGA [3d1502]
  fraction ligated: 0.0243

## TATCACTTTCGAAGACACTTTGGATGGGTTA [3d1504]
  fraction ligated: 0.382

## TATCACTTTCGAAGACACTTTGGATGGGTTG [3d1505]
  fraction ligated: 0.792

## TATCACTTTCGAAGACACTTTGGATGGGTTGA [2d149]
  fraction ligated: 0.797

## TATCACTTTCGAAGACACTTTGGATGGTTGA [3d1503]
  fraction ligated: 0.0707

## TATCACTTTCGAAGACACTTTGGTGGGTTGA [3d1501]
  fraction ligated: 0.0423

## TATCACTTTCGAAGACATTTGGATGGGTTGA [3d1498]
  fraction ligated: 0.769

## TATCACTTTCGAAGACCTTTGGATGGGTTGA [3d1497]
  fraction ligated: 0.765

## TATCACTTTCGAAGCACTTTGGATGGGTTGA [3d1495]
  fraction ligated: 0.766

## TATCACTTTCGAGACACTTTGGATGGGTTGA [3d1493]
  fraction ligated: 0.79

## TATCACTTTCGTAAAACTTTGGATGGGTTGA [3d1519]
  fraction ligated: 0.823

## TATCACTTTCGTAAACACTTGGATGGGTTGA [3d1522]
  fraction ligated: 0.778

## TATCACTTTCGTAAACACTTTGATGGGTTGA [3d1523]
  fraction ligated: 0.768

## TATCACTTTCGTAAACACTTTGGAGGGTTGA [3d1525]
  fraction ligated: 0.0183

## TATCACTTTCGTAAACACTTTGGATGGGTTA [3d1527]
  fraction ligated: 0.575

## TATCACTTTCGTAAACACTTTGGATGGGTTG [3d1528]
  fraction ligated: 0.776

## TATCACTTTCGTAAACACTTTGGATGGTTGA [3d1526]
  fraction ligated: 0.0497

## TATCACTTTCGTAAACACTTTGGTGGGTTGA [3d1524]
  fraction ligated: 0.0319

## TATCACTTTCGTAAACATTTGGATGGGTTGA [3d1521]
  fraction ligated: 0.787

## TATCACTTTCGTAAACCTTTGGATGGGTTGA [3d1520]
  fraction ligated: 0.788

## TATCACTTTCGTAACACTTTGGATGGGTTGA [3d1507]
  fraction ligated: 0.796

## TATCACTTTCGTAAGAACTTGGATGGGTTGA [3d1540]
  fraction ligated: 0.829

## TATCACTTTCGTAAGAACTTTGATGGGTTGA [3d1541]
  fraction ligated: 0.829

## TATCACTTTCGTAAGAACTTTGGAGGGTTGA [3d1543]
  fraction ligated: 0.126

## TATCACTTTCGTAAGAACTTTGGATGGGTTA [3d1545]
  fraction ligated: 0.851

## TATCACTTTCGTAAGAACTTTGGATGGGTTG [3d1546]
  fraction ligated: 0.868

## TATCACTTTCGTAAGAACTTTGGATGGTTGA [3d1544]
  fraction ligated: 0.643

## TATCACTTTCGTAAGAACTTTGGTGGGTTGA [3d1542]
  fraction ligated: 0.342

## TATCACTTTCGTAAGAATTTGGATGGGTTGA [3d1539]
  fraction ligated: 0.835

## TATCACTTTCGTAAGACACTGGATGGGTTGA [3d1561]
  fraction ligated: 0.774

## TATCACTTTCGTAAGACACTTGATGGGTTGA [3d1562]
  fraction ligated: 0.787

## TATCACTTTCGTAAGACACTTGGAGGGTTGA [3d1564]
  fraction ligated: 0.085

## TATCACTTTCGTAAGACACTTGGATGGGTTA [3d1566]
  fraction ligated: 0.477

## TATCACTTTCGTAAGACACTTGGATGGGTTG [3d1567]
  fraction ligated: 0.773

## TATCACTTTCGTAAGACACTTGGATGGTTGA [3d1565]
  fraction ligated: 0.134

## TATCACTTTCGTAAGACACTTGGTGGGTTGA [3d1563]
  fraction ligated: 0.171

## TATCACTTTCGTAAGACACTTTATGGGTTGA [3d1568]
  fraction ligated: 0.0429

## TATCACTTTCGTAAGACACTTTGAGGGTTGA [3d1570]
  fraction ligated: 0.0593

## TATCACTTTCGTAAGACACTTTGATGGGTTA [3d1572]
  fraction ligated: 0.0837

## TATCACTTTCGTAAGACACTTTGATGGGTTG [3d1573]
  fraction ligated: 0.731

## TATCACTTTCGTAAGACACTTTGATGGTTGA [3d1571]
  fraction ligated: 0.0696

## TATCACTTTCGTAAGACACTTTGGAGGGTTA [3d1579]
  fraction ligated: 0.04

## TATCACTTTCGTAAGACACTTTGGAGGGTTG [3d1580]
  fraction ligated: 0.0276

## TATCACTTTCGTAAGACACTTTGGAGGTTGA [3d1578]
  fraction ligated: 0.0266

## TATCACTTTCGTAAGACACTTTGGATGGGTT [3d1583]
  fraction ligated: 0.22

## TATCACTTTCGTAAGACACTTTGGATGGGTTA [2d161]
  fraction ligated: 0.751

## TATCACTTTCGTAAGACACTTTGGATGGGTTG [2d162]
  fraction ligated: 0.777

## TATCACTTTCGTAAGACACTTTGGATGGGTTGA [1d8]
  fraction ligated: 0.815

## TATCACTTTCGTAAGACACTTTGGATGGTTA [3d1581]
  fraction ligated: 0.0764

## TATCACTTTCGTAAGACACTTTGGATGGTTG [3d1582]
  fraction ligated: 0.0551

## TATCACTTTCGTAAGACACTTTGGATGGTTGA [2d160]
  fraction ligated: 0.114

## TATCACTTTCGTAAGACACTTTGGGGGTTGA [3d1574]
  fraction ligated: 0.0345

## TATCACTTTCGTAAGACACTTTGGTGGGTTA [3d1576]
  fraction ligated: 0.0309

## TATCACTTTCGTAAGACACTTTGGTGGGTTG [3d1577]
  fraction ligated: 0.0247

## TATCACTTTCGTAAGACACTTTGGTGGTTGA [3d1575]
  fraction ligated: 0.025

## TATCACTTTCGTAAGACACTTTGTGGGTTGA [3d1569]
  fraction ligated: 0.0262

## TATCACTTTCGTAAGACATTGGATGGGTTGA [3d1554]
  fraction ligated: 0.791

## TATCACTTTCGTAAGACATTTGATGGGTTGA [3d1555]
  fraction ligated: 0.768

## TATCACTTTCGTAAGACATTTGGAGGGTTGA [3d1557]
  fraction ligated: 0.0972

## TATCACTTTCGTAAGACATTTGGATGGGTTA [3d1559]
  fraction ligated: 0.778

## TATCACTTTCGTAAGACATTTGGATGGGTTG [3d1560]
  fraction ligated: 0.811

## TATCACTTTCGTAAGACATTTGGATGGTTGA [3d1558]
  fraction ligated: 0.286

## TATCACTTTCGTAAGACATTTGGTGGGTTGA [3d1556]
  fraction ligated: 0.284

## TATCACTTTCGTAAGACCTTGGATGGGTTGA [3d1547]
  fraction ligated: 0.766

## TATCACTTTCGTAAGACCTTTGATGGGTTGA [3d1548]
  fraction ligated: 0.786

## TATCACTTTCGTAAGACCTTTGGAGGGTTGA [3d1550]
  fraction ligated: 0.0285

## TATCACTTTCGTAAGACCTTTGGATGGGTTA [3d1552]
  fraction ligated: 0.623

## TATCACTTTCGTAAGACCTTTGGATGGGTTG [3d1553]
  fraction ligated: 0.75

## TATCACTTTCGTAAGACCTTTGGATGGTTGA [3d1551]
  fraction ligated: 0.0784

## TATCACTTTCGTAAGACCTTTGGTGGGTTGA [3d1549]
  fraction ligated: 0.104

## TATCACTTTCGTAAGACTTTGGATGGGTTGA [3d1529]
  fraction ligated: 0.823

## TATCACTTTCGTAAGCACTTGGATGGGTTGA [3d1532]
  fraction ligated: 0.772

## TATCACTTTCGTAAGCACTTTGATGGGTTGA [3d1533]
  fraction ligated: 0.784

## TATCACTTTCGTAAGCACTTTGGAGGGTTGA [3d1535]
  fraction ligated: 0.03

## TATCACTTTCGTAAGCACTTTGGATGGGTTA [3d1537]
  fraction ligated: 0.727

## TATCACTTTCGTAAGCACTTTGGATGGGTTG [3d1538]
  fraction ligated: 0.764

## TATCACTTTCGTAAGCACTTTGGATGGTTGA [3d1536]
  fraction ligated: 0.0345

## TATCACTTTCGTAAGCACTTTGGTGGGTTGA [3d1534]
  fraction ligated: 0.0496

## TATCACTTTCGTAAGCATTTGGATGGGTTGA [3d1531]
  fraction ligated: 0.791

## TATCACTTTCGTAAGCCTTTGGATGGGTTGA [3d1530]
  fraction ligated: 0.774

## TATCACTTTCGTAGAACTTTGGATGGGTTGA [3d1509]
  fraction ligated: 0.875

## TATCACTTTCGTAGACACTTGGATGGGTTGA [3d1512]
  fraction ligated: 0.752

## TATCACTTTCGTAGACACTTTGATGGGTTGA [3d1513]
  fraction ligated: 0.783

## TATCACTTTCGTAGACACTTTGGAGGGTTGA [3d1515]
  fraction ligated: 0.0412

## TATCACTTTCGTAGACACTTTGGATGGGTTA [3d1517]
  fraction ligated: 0.631

## TATCACTTTCGTAGACACTTTGGATGGGTTG [3d1518]
  fraction ligated: 0.786

## TATCACTTTCGTAGACACTTTGGATGGGTTGA [2d150]
  fraction ligated: 0.802

## TATCACTTTCGTAGACACTTTGGATGGTTGA [3d1516]
  fraction ligated: 0.0829

## TATCACTTTCGTAGACACTTTGGTGGGTTGA [3d1514]
  fraction ligated: 0.0546

## TATCACTTTCGTAGACATTTGGATGGGTTGA [3d1511]
  fraction ligated: 0.77

## TATCACTTTCGTAGACCTTTGGATGGGTTGA [3d1510]
  fraction ligated: 0.78

## TATCACTTTCGTAGCACTTTGGATGGGTTGA [3d1508]
  fraction ligated: 0.826

## TATCACTTTCGTGACACTTTGGATGGGTTGA [3d1506]
  fraction ligated: 0.813

## TATCACTTTCTAAACACTTTGGATGGGTTGA [3d1481]
  fraction ligated: 0.79

## TATCACTTTCTAAGAACTTTGGATGGGTTGA [3d1483]
  fraction ligated: 0.87

## TATCACTTTCTAAGACACTTGGATGGGTTGA [3d1486]
  fraction ligated: 0.767

## TATCACTTTCTAAGACACTTTGATGGGTTGA [3d1487]
  fraction ligated: 0.77

## TATCACTTTCTAAGACACTTTGGAGGGTTGA [3d1489]
  fraction ligated: 0.026

## TATCACTTTCTAAGACACTTTGGATGGGTTA [3d1491]
  fraction ligated: 0.68

## TATCACTTTCTAAGACACTTTGGATGGGTTG [3d1492]
  fraction ligated: 0.785

## TATCACTTTCTAAGACACTTTGGATGGGTTGA [2d148]
  fraction ligated: 0.794

## TATCACTTTCTAAGACACTTTGGATGGTTGA [3d1490]
  fraction ligated: 0.114

## TATCACTTTCTAAGACACTTTGGTGGGTTGA [3d1488]
  fraction ligated: 0.101

## TATCACTTTCTAAGACATTTGGATGGGTTGA [3d1485]
  fraction ligated: 0.818

## TATCACTTTCTAAGACCTTTGGATGGGTTGA [3d1484]
  fraction ligated: 0.783

## TATCACTTTCTAAGCACTTTGGATGGGTTGA [3d1482]
  fraction ligated: 0.788

## TATCACTTTCTAGACACTTTGGATGGGTTGA [3d1480]
  fraction ligated: 0.765

## TATCACTTTGAAGACACTTTGGATGGGTTGA [3d1465]
  fraction ligated: 0.819

## TATCACTTTGTAAACACTTTGGATGGGTTGA [3d1467]
  fraction ligated: 0.823

## TATCACTTTGTAAGAACTTTGGATGGGTTGA [3d1469]
  fraction ligated: 0.866
